Measurements as given in article PMC6446838.

How the values were obtained:
[1] = target: full-length KIF5B-GFP with C-terminal Strep-tag (human) (UniProt P33176)
[2] = target: K560-GFP with C-terminal Strep-tag, purified (human) (UniProt P33176)
K560-GFP with C-terminal Strep-tag, purified (human), sequence (P33176 1-560): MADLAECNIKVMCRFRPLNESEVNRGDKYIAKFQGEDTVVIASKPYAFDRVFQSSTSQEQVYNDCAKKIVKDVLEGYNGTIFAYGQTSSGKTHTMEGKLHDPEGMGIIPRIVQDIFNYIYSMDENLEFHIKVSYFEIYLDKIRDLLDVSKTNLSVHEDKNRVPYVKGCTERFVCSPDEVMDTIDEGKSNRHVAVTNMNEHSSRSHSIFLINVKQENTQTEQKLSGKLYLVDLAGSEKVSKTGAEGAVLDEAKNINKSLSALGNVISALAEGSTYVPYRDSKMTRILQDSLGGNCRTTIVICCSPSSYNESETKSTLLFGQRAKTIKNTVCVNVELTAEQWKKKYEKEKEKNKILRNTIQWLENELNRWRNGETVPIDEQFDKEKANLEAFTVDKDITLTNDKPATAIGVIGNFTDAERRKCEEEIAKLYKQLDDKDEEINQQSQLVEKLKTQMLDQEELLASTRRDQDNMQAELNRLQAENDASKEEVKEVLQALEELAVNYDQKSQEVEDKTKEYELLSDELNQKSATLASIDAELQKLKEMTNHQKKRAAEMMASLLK

Alexa Fluor 647–labeled SNAP-tag-MAP7, full length, sequence (Q14244 whole entry): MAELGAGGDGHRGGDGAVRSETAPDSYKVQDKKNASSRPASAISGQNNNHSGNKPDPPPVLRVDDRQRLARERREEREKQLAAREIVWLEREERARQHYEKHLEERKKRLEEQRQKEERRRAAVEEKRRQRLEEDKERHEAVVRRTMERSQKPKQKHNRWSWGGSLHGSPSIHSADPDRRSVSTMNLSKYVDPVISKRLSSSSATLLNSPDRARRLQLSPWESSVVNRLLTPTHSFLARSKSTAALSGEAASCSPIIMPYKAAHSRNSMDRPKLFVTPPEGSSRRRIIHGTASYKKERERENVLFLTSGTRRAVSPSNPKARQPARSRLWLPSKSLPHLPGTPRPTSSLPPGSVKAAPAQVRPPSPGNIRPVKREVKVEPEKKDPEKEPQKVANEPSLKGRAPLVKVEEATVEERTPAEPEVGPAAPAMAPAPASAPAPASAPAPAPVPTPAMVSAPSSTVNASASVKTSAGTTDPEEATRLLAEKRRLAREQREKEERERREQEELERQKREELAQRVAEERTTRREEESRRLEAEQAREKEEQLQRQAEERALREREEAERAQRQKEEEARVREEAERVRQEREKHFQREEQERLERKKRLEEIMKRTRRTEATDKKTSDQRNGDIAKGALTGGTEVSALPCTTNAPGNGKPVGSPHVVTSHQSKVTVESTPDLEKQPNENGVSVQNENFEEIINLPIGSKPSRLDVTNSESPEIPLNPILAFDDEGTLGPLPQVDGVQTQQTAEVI
full-length KIF5B-GFP with C-terminal Strep-tag (human), sequence (P33176 whole entry): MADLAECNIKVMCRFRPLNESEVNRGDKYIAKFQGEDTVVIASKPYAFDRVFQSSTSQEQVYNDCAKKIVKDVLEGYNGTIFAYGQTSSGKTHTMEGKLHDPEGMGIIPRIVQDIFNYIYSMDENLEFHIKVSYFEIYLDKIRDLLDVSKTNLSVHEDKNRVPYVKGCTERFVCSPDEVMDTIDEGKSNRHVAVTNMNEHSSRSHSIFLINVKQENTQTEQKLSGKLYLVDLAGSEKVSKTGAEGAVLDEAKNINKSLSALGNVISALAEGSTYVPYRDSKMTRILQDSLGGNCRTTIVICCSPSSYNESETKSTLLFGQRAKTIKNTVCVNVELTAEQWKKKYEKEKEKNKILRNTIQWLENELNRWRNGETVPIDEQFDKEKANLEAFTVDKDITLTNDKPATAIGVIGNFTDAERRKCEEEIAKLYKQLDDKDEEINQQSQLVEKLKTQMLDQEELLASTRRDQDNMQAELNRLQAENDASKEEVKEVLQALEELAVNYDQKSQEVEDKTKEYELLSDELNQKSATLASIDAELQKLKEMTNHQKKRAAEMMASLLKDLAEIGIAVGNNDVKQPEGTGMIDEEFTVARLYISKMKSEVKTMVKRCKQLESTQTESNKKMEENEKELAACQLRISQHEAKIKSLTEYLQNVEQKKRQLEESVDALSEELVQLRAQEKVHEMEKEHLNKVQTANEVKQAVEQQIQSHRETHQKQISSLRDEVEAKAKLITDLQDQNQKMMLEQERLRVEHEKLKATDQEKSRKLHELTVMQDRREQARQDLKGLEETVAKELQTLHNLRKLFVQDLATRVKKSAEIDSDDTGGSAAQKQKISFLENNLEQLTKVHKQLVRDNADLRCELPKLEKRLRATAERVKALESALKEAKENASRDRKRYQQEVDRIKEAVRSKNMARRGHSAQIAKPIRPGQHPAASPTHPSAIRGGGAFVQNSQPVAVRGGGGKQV

events of full-length KIF5B-GFP on dynamic MTs in vitro (short binding events and landing followed by processive movement), with MAP against kinesin alone [1]: > 60 fold
run length of full-length KIF5B-GFP on dynamic MTs in vitro, with MAP against kinesin alone [1]: 1.6 fold
landing frequency of K560-GFP on MAP-decorated dynamic MTs in vitro, increasing MAP concentrations, against K560 alone [2]: < 23.6 fold
processivity (run length) of K560-GFP on dynamic MTs in vitro [2]: 2 fold
Substance: Alexa Fluor 647–labeled SNAP-tag-MAP7, full length (from UniProt Q14244 1-749) (natural protein)
